{"source": "IntAct's records for PubMed 30523278", "parents": {"B1": {"name": "Protein amnionless (Homo sapiens), Q9BXJ7 (parent)", "chain": "MGVLGRVLLWLQLCALTQAVSKLWVPNTDFDVAANWSQNRTPCAGGAVEFPADKMVSVLVQEGHAVSDMLLPLDGELVLASGAGFGVSDVGSHLDCGAGEPAVFRDSDRFSWHDPHLWRSGDEAPGLFFVDAERVPCRHDDVFFPPSASFRVGLGPGASPVRVRSISALGRTFTRDEDLAVFLASRAGRLRFHGPGALSVGPEDCADPSGCVCGNAEAQPWICAALLQPLGGRCPQAACHSALRPQGQCCDLCGAVVLLTHGPAFDLERYRARILDTFLGLPQYHGLQVAVSKVPRSSRLREADTEIQVVLVENGPETGGAGRLARALLADVAENGEALGVLEATMRESGAHVWGSSAAGLAGGVAAAVLLALLVLLVAPPLLRRAGRLRWRRHEAAAPAGAPLGFRNPVFDVTASEELPLPRRLSLVPKAAADSTSHSYFVNPLFAGAEAEA"}}, "data": [{"variants_of": "B1", "conditions": "with cubn_human CUBN", "values": [{"variant": "T41I", "effect of a mutation on the interaction": "with no effect"}, {"variant": "N35Q", "effect of a mutation on the interaction": "disrupting interaction strength"}, {"variant": "S37A;T41I", "effect of a mutation on the interaction": "with no effect"}, {"variant": "S37A", "effect of a mutation on the interaction": "with no effect"}, {"variant": "N35Q;T41I", "effect of a mutation on the interaction": "disrupting interaction strength"}]}, {"variants_of": "B1", "conditions": "with cubn_human CUBN", "remark": "another data set of the same source", "values": [{"variant": "C234F", "effect of a mutation on the interaction": "disrupting interaction strength"}, {"variant": "G254E", "effect of a mutation on the interaction": "disrupting interaction strength"}, {"variant": "L59P", "effect of a mutation on the interaction": "disrupting interaction strength"}, {"variant": "M69K", "effect of a mutation on the interaction": "disrupting interaction strength"}]}]}
